Literature values, collected in paper PMC4741949.

Biological target: EGFR wild-type (human) (UniProt P00533)
Settings: 2'F-pyrimidines (2'F-C, 2'F-U), RT-qPCR: 15 min 37 C, 100 ug/ml polyinosine, DPBS washes, flow cytometry: DPBS, 30 min, confocal: DMEM without FBS, UV cross-linking buffer not given

GCCUUAGUAACGUGCUUUGAUGUCGAUUCGACAGGAGGC [CL4]
Kd: 10 nM
